Measurements taken from patent publication US20110142849A1 (IRM, published 2011).

How the values were obtained:
[1] = biological target: T1, recombinant human Pcsk9 (aa 31-692) with C-terminal his6 tag (human, UniProt Q8NBP7 31-692); assay: Solution Equilibrium Titration (SET), MSD read-out
T1 construct: In the TR-FRET assay it carried a fluorophore (hPcsk9-AF); also called hPCSK9; hPcsk9
Description: The binding kinetics of IgGs and Fab fragments were analyzed using a Solution Equilibrium Titration (“SET”) assay. Briefly, serial dilutions of hPCSK9 were added to 60 pM IgG or Fab and incubated overnight. A 96-well Standard Bind microtiter plate (Meso Scale Discovery) was coated with 1 μg/ml hPCSK9 and incubated overnight, washed with PBS/0.05% (w/v) Tween 20, blocked with PBS/5% (w/v) BSA, and washed again. The antibody-antigen preparation was added to the PCSK9-coated Standard Bind plate and incubated for 30 min at room temperature. After three additional washing steps, Sulfo-Tag-labeled goat-anti-human-detection antibody (R32AJ-5, Meso Scale Discovery) was added and incubated one hour at room temperature. After washing the plate three times, Read Buffer (Meso Scale Discovery) was added and electrochemiluminescence (ECL) signals were measured by a Sector Imager 6000 (Meso Scale Discovery). ECL data were processed with the excel add-in XLfit 4.3.2 (ID Business Solutions) using the fitting model applicable for antibodies described in Piehler, et al., (1997) J Immunol Methods 201:189-206.

[2] = biological target: T2, cynomolgus monkey Pcsk9 with C-terminal his6 tag (cynomolgus monkey); assay: ELISA on cyno Pcsk9his, antibody 0.03 to 30 ng/ml, Abs 650nm
T2 chain: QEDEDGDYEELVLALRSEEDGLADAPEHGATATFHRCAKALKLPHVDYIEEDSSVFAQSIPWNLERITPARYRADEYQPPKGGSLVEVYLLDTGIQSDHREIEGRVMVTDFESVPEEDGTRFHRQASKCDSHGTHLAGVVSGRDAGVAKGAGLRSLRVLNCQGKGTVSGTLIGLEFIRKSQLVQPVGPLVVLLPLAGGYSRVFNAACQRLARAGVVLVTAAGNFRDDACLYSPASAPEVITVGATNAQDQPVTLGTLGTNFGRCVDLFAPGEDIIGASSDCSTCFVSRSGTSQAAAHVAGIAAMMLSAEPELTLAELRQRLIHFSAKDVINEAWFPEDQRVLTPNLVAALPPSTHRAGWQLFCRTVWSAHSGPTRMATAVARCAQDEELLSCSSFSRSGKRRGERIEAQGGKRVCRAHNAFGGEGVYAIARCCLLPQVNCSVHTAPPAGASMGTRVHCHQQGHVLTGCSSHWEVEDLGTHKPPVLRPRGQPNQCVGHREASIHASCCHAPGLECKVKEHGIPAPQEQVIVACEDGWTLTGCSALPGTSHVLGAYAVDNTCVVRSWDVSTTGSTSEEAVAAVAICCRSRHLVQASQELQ

B1: NVP-LGT211 (antibody, human IgG1, V domains shown)
VH: QVQLVQSGAEVKKPGASVKVSCKASGYTFSTMYMSWVRQAPGQGLEWMGRIDPANEHTNYAQKFQGRVTMTRDTSISTAYMELSRLTSDDTAVYYCARSYYYYAMDYWGQGTLVTVSS
VL: QIVLTQSPATLSVSPGERATLSCRASQSVSYMHWYQQKPGQAPRLLIYGVFRRATGIPDRFSGSGSGTDFTLTIGRLEPEDFAVYYCLQWSSDPPTFGQGTKLEIKR
notes: Silent human IgG1 kappa; also called pSR74 (Vh) + pJG10 (Vk); pSR074 + pJG10
For B1, the Kd [1] was 0.19 nM and the “EC50 (read off the curve)” value [2] was roughly 2 ng/mL.
